# Test results from patent US20190002534A1 (UNIVERSITY OF MASSACHUSETTS, published 2019).
# B1: anti-rabies virus human monoclonal antibody 17C7 (antibody, V domains shown)
# VH: QVQLVESGGGVVQPGRSLRLSCAASGFTFSTYAMHWVRQAPGKGLEWVAVVSYDGRTKDYADSVKGRFTISRDNSKNTLYLQMNSLRTEDTAVYFCARERFSGAYFDYWGQGTLVTVSS
# VL: EIVLTQSPATLSLSPGERATLSCRASQSVSSYLAWYQQKPGQAPRLLIYDASNRATGIPARFSGSGSGTDFTLTISSLEPEDFAVYSCQQRNNWPPTFGGGTKVEIK
# B2: anti-rabies virus human monoclonal antibody 2B10 (antibody, V domains shown)
# VH: EVQLVQSGGGLVHPGGSLRLSCAGSGFTFSYFAMHWVRQAPGKGLEWVSTIGTGGGTYYADSVKGRFTISRDNAKNSLYLQMNSLRAEDMAVYYCARDNALRSFDWLFYSFDYWGQGTLVTVSS
# VL: EIVLTQSPGTLSLSPGERATLSCRASQSISSSYLAWYQQKPGQAPRLLIYGASSRATGIPDRFSGSGSGTDFTLTISRLEPEDFAVYYCQRYGSSYTFGQGTKLEIK
# What was measured:
# Test in all cases: cell-based or functional assay
# [1] = target: G glycoprotein of rabies virus street isolate Tadarida (Test B) (rabies virus, isolate Tadarida sp. …)
# [2] = target: G glycoprotein of rabies virus street isolate Raccoon (Florida) (rabies virus, isolate Raccoon (Florida))
# [3] = target: G glycoprotein of rabies virus street isolate Skunk south-central (Test B) (rabies virus, isolate Skunk …)
# [4] = target: G glycoprotein of rabies virus street isolate SW E fuscus (Test B) (rabies virus, isolate SW E fuscus …)
# [5] = target: G glycoprotein of rabies virus street isolate Eptesicus fuscus (Nebraska) (Test B) (rabies virus, isolate Eptesicus fuscus …)
# [6] = target: G glycoprotein of rabies virus street isolate Eastern pipistrelle (Test B) (rabies virus, isolate Eastern …)
# [7] = target: G glycoprotein of rabies virus street isolate Gray fox (Test B) (rabies virus, isolate Gray fox (Fox …))
# [8] = target: G glycoprotein of rabies virus street isolate Lasiurus cinereus (Arkansas) (Test B) (rabies virus, isolate Lasiurus cinereus …)
# [9] = target: G glycoprotein of rabies virus street isolate Skunk (north-central) (Test B) (rabies virus, isolate Skunk …)
# [10] = target: G glycoprotein of rabies virus isolate Texas coyote 323R (rabies virus, isolate Texas coyote 323R)
# [11] = target: G glycoprotein of rabies virus street isolate CASK (rabies virus, isolate CASK (Skunk, U.S. …))
# [12] = target: T1, G glycoprotein of rabies virus street isolate PR Mong (rabies virus, isolate PR Mong …)
# [13] = target: T2, G glycoprotein of rabies virus street isolate AK fox (rabies virus, isolate AK fox (Fox, …))
# [14] = target: T3, G glycoprotein of rabies virus street isolate NC SK (rabies virus, isolate NC SK (Skunk, …))
# [15] = target: G glycoprotein of rabies virus street isolate TN33 (rabies virus, isolate TN33 (Lasiurus …))
# [16] = target: G glycoprotein of rabies virus street isolate AZ fox 2400 (rabies virus, isolate AZ fox 2400 (Fox …))
# [17] = target: T4, G glycoprotein of rabies virus street isolate RAC (rabies virus, isolate RAC (Raccoon, …))
# [18] = target: G glycoprotein of rabies virus street isolate AZ Bat LC (rabies virus, isolate AZ Bat LC …)
# [19] = target: T5, G glycoprotein of rabies virus street isolate C1434 (rabies virus, isolate C1434 …)
# [20] = target: T6, G glycoprotein of rabies virus street isolate CO Bat EF6938 (rabies virus, isolate CO Bat EF6938 …)
# [21] = target: G glycoprotein of rabies virus street isolate VA399 (rabies virus, isolate VA399 (Lasiurus …))
# [22] = target: G glycoprotein of rabies virus street isolate CABat (rabies virus, isolate CABat (Myotis …))
# [23] = target: T7, G glycoprotein of rabies virus street isolate Sonora Dog (rabies virus, isolate Sonora Dog (Dog, …))
# [24] = target: G glycoprotein of rabies virus street isolate FLBat 769 (rabies virus, isolate FLBat 769 …)
# [25] = target: G glycoprotein of rabies virus street isolate VA1340 (rabies virus, isolate VA1340 (Lasiurus …))
# [26] = target: T8, G glycoprotein of rabies virus street isolate Myotis (rabies virus, isolate Myotis (Myotis …))
# [27] = target: G glycoprotein of rabies virus street isolate TX Fox (rabies virus, isolate TX Fox (Fox …))
# [28] = target: T9, G glycoprotein of rabies virus street isolate WA Bat (rabies virus, isolate WA Bat …)
# [29] = target: G glycoprotein of rabies virus street isolate TN132 (rabies virus, isolate TN132 (Lasiurus …))
# [30] = target: G glycoprotein of rabies virus street isolate 1625 Bat (rabies virus, isolate 1625 Bat …)
# [31] = target: T10, G glycoprotein of rabies virus street isolate TX SK 4380 (rabies virus, isolate TX SK 4380 …)
# [32] = target: T11, G glycoprotein of rabies virus street isolate Bat EF (rabies virus, isolate Bat EF (Eptesicus …))
# [33] = target: G glycoprotein of rabies virus street isolate TN269 (rabies virus, isolate TN269 (Lasiurus …))
# [34] = target: G glycoprotein of rabies virus street isolate TN410 (rabies virus, isolate TN410 (Lasiurus …))
# [35] = target: T1, G glycoprotein of rabies virus street …; remark: listed apart in the source
# [36] = target: T2, G glycoprotein of rabies virus street …; remark: listed apart in the source
# [37] = target: T3, G glycoprotein of rabies virus street …; remark: listed apart in the source
# [38] = target: T4, G glycoprotein of rabies virus street …; remark: listed apart in the source
# [39] = target: T5, G glycoprotein of rabies virus street …; remark: listed apart in the source
# [40] = target: T6, G glycoprotein of rabies virus street …; remark: listed apart in the source
# [41] = target: T7, G glycoprotein of rabies virus street …; remark: listed apart in the source
# [42] = target: T8, G glycoprotein of rabies virus street …; remark: listed apart in the source
# [43] = target: T9, G glycoprotein of rabies virus street …; remark: listed apart in the source
# [44] = target: T10, G glycoprotein of rabies virus street …; remark: listed apart in the source
# [45] = target: T11, G glycoprotein of rabies virus street …; remark: listed apart in the source
binder,measurement,setting,value
B1,EC50 neutralization by RFFIT (Test B),[1],1.05 µg/mL
same,EC50 neutralization by RFFIT (Test B),[2],1000 µg/mL
same,EC50 neutralization by RFFIT (Test B),[3],0.0004 µg/mL
same,EC50 neutralization by RFFIT (Test B),[4],675 µg/mL
same,EC50 neutralization by RFFIT (Test B),[5],0.002 µg/mL
same,EC50 neutralization by RFFIT (Test B),[6],143 µg/mL
same,EC50 neutralization by RFFIT (Test B),[7],0.002 µg/mL
same,EC50 neutralization by RFFIT (Test B),[8],10.4 µg/mL
same,EC50 neutralization by RFFIT (Test B),[9],7.36 µg/mL
same,EC50 neutralization by RFFIT (Test A),[10],0.01 µg/mL
same,EC50 neutralization by RFFIT (Test A),[11],0.006 µg/mL
same,EC50 neutralization by RFFIT (Test A),[12],0.007 µg/mL
same,EC50 neutralization by RFFIT (Test A),[13],0.005 µg/mL
same,EC50 neutralization by RFFIT (Test A),[14],0.8 µg/mL
same,EC50 neutralization by RFFIT (Test A),[15],9.11 µg/mL
same,EC50 neutralization by RFFIT (Test A),[16],0.211 µg/mL
same,EC50 neutralization by RFFIT (Test A),[17],0.027 µg/mL
same,EC50 neutralization by RFFIT (Test A),[18],10 µg/mL
same,EC50 neutralization by RFFIT (Test A),[19],0.154 µg/mL
same,EC50 neutralization by RFFIT (Test A),[20],0.182 µg/mL
same,EC50 neutralization by RFFIT (Test A),[21],21.9 µg/mL
same,EC50 neutralization by RFFIT (Test A),[22],0.006 µg/mL
same,EC50 neutralization by RFFIT (Test A),[23],0.006 µg/mL
same,EC50 neutralization by RFFIT (Test A),[24],80.2 µg/mL
same,EC50 neutralization by RFFIT (Test A),[25],199 µg/mL
same,EC50 neutralization by RFFIT (Test A),[26],0.004 µg/mL
same,EC50 neutralization by RFFIT (Test A),[27],0.023 µg/mL
same,EC50 neutralization by RFFIT (Test A),[28],0.87 µg/mL
same,EC50 neutralization by RFFIT (Test A),[29],414 µg/mL
same,EC50 neutralization by RFFIT (Test A),[30],80 µg/mL
same,EC50 neutralization by RFFIT (Test A),[31],0.006 µg/mL
same,EC50 neutralization by RFFIT (Test A),[32],0.512 µg/mL
same,EC50 neutralization by RFFIT (Test A),[33],400 µg/mL
same,EC50 neutralization by RFFIT (Test A),[34],8 µg/mL
same,EC50 neutralization by RFFIT,[35],0.007 µg/mL
same,EC50 neutralization by RFFIT,[36],0.005 µg/mL
same,EC50 neutralization by RFFIT,[37],0.8 µg/mL
same,EC50 neutralization by RFFIT,[38],0.027 µg/mL
same,EC50 neutralization by RFFIT,[39],0.154 µg/mL
same,EC50 neutralization by RFFIT,[40],0.182 µg/mL
same,EC50 neutralization by RFFIT,[41],0.006 µg/mL
same,EC50 neutralization by RFFIT,[42],0.004 µg/mL
same,EC50 neutralization by RFFIT,[43],0.87 µg/mL
same,EC50 neutralization by RFFIT,[44],0.006 µg/mL
same,EC50 neutralization by RFFIT,[45],0.512 µg/mL
B2,EC50 neutralization by RFFIT (Test B),[1],0.011 µg/mL
same,EC50 neutralization by RFFIT (Test B),[2],0.005 µg/mL
same,EC50 neutralization by RFFIT (Test B),[3],0.002 µg/mL
same,EC50 neutralization by RFFIT (Test B),[4],0.005 µg/mL
same,EC50 neutralization by RFFIT (Test B),[5],0.014 µg/mL
same,EC50 neutralization by RFFIT (Test B),[6],0.033 µg/mL
same,EC50 neutralization by RFFIT (Test B),[7],< 0.0002 µg/mL
same,EC50 neutralization by RFFIT (Test B),[8],117 µg/mL
same,EC50 neutralization by RFFIT (Test B),[9],0.005 µg/mL
same,EC50 neutralization by RFFIT (Test A),[10],1.57 µg/mL
same,EC50 neutralization by RFFIT (Test A),[11],0.48 µg/mL
same,EC50 neutralization by RFFIT (Test A),[12],0.006 µg/mL
same,EC50 neutralization by RFFIT (Test A),[13],0.004 µg/mL
same,EC50 neutralization by RFFIT (Test A),[14],0.004 µg/mL
same,EC50 neutralization by RFFIT (Test A),[15],1620 µg/mL
same,EC50 neutralization by RFFIT (Test A),[16],0.043 µg/mL
same,EC50 neutralization by RFFIT (Test A),[17],0.03 µg/mL
same,EC50 neutralization by RFFIT (Test A),[18],422 µg/mL
same,EC50 neutralization by RFFIT (Test A),[19],0.008 µg/mL
same,EC50 neutralization by RFFIT (Test A),[20],0.01 µg/mL
same,EC50 neutralization by RFFIT (Test A),[21],864 µg/mL
same,EC50 neutralization by RFFIT (Test A),[22],0.004 µg/mL
same,EC50 neutralization by RFFIT (Test A),[23],0.006 µg/mL
same,EC50 neutralization by RFFIT (Test A),[24],> 2400 µg/mL
same,EC50 neutralization by RFFIT (Test A),[25],> 2400 µg/mL
same,EC50 neutralization by RFFIT (Test A),[26],0.008 µg/mL
same,EC50 neutralization by RFFIT (Test A),[27],0.02 µg/mL
same,EC50 neutralization by RFFIT (Test A),[28],0.009 µg/mL
same,EC50 neutralization by RFFIT (Test A),[29],> 2400 µg/mL
same,EC50 neutralization by RFFIT (Test A),[30],83 µg/mL
same,EC50 neutralization by RFFIT (Test A),[31],0.005 µg/mL
same,EC50 neutralization by RFFIT (Test A),[32],0.015 µg/mL
same,EC50 neutralization by RFFIT (Test A),[33],> 2400 µg/mL
same,EC50 neutralization by RFFIT (Test A),[34],222 µg/mL
same,EC50 neutralization by RFFIT,[35],0.006 µg/mL
same,EC50 neutralization by RFFIT,[36],0.004 µg/mL
same,EC50 neutralization by RFFIT,[37],0.004 µg/mL
same,EC50 neutralization by RFFIT,[38],0.03 µg/mL
same,EC50 neutralization by RFFIT,[39],0.008 µg/mL
same,EC50 neutralization by RFFIT,[40],0.01 µg/mL
same,EC50 neutralization by RFFIT,[41],0.006 µg/mL
same,EC50 neutralization by RFFIT,[42],0.008 µg/mL
same,EC50 neutralization by RFFIT,[43],0.009 µg/mL
same,EC50 neutralization by RFFIT,[44],0.005 µg/mL
same,EC50 neutralization by RFFIT,[45],0.015 µg/mL
